A word on the koff: it is the rate constant with which the complex falls apart. High values mean a short-lived complex, low ones a long-lived complex.

For one experiment, the target named is S1-hFc (SARS-CoV-2). The experiment can be described thus: BLI. A general note: In BLI a coated tip is dipped into the sample, and binding shifts an interference pattern.
The target of the next experiment is RBD-mFc (SARS-CoV-2, UniProt P0DTC2). The experiment can be described thus: BLI.

B1: RBD-1-2G(NCATS-BL8125) (VHH)
VHH: EVQLVESGGGLVQPGGSLRLSCAASGFSSIVYMGWFRQAPGKGRELVAAIDASGSTTNYPDSVEGRFTISRDNAKRMVYLQMNSLRAEDTAVYYCAIAYFTSPEYVVSQGWGQGTQVTVSS
Take B1: the results for the dissociation rate constant (koff) with S1-hFc and with RBD-mFc were 0.0002 s⁻¹ and 0.00024 s⁻¹, respectively.

For the origin of these results see paper PMC9365158 (2022).
